B1: CPEB3 Ribozyme (parent)
chain: UAACAGGGGGCCACAGCAGAAGCGUUCACGUCGCAGCCCCUGUCAGAUUCUGGUGAAUCUGCGAAUUCUGCUGUAUAUCUC

Variants of: B1
Test: self-cleavage, relative activity (ratio to wild type); higher = more cleavage; in vitro, sequencing
Outline: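 For each CPEB3 ribozyme variant, relative activity is its cleaved/total read fraction divided by the unmutated ribozyme's. Barcoded error-prone PCR libraries were transcribed by T7 RNA polymerase (5 hours, 37°C) and held in DNase I for 15 min before an EDTA stop, with cleavage occurring throughout. Template-switching reverse transcription and Illumina sequencing were used to read the RNAs. A 5-read minimum applied, and results are the mean of three batches.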

Variant	self-cleavage
UAACAGGGGGCCACAGCAGAAGCGUUCACGUCGCAGCCCCUGGCAGAUUCUGGUGAAUCUGCGAAUUCUACUGUAUAUCUC [U43G G70A]	0.34
UAACAGGGGGCCACAGCAGAAGCGUUCACGUCGCAGCCCCUGGCAGAUUCUGGUGAACCUGCGAAUUCUGCUGUAUAUCUC [U43G U58C]	0.14
UAACAGGGGGCCACAGCAGAAGCGUUCACGUCGCAGCCCCUGGCAAAUUCUGGUGAAUCUGCGAAUUCUGCUGUAUAUCUC [U43G G46A]	0.37
UAACAGGGGGCCACAGCAGAAGCGUUCACGUCGCAGCCCCUGGCAGAUUCUGGUGAAUCUGCGAAUUCUGCUGUAUGUCUC [U43G A77G]	0.22
UAACAGGGGGCCACAGCAGAAGCGUUCACGUCGCAGCCCCUGGCAGAUUCUGGAGAAUCUGCGAAUUCUGCUGUAUAUCUC [U43G U54A]	0.26
UAACAGGGGGCCACAGCAGAAGCGUUCACGUCGCAGCCCCUGGCAGAUUCUGGCGAAUCUGCGAAUUCUGCUGUAUAUCUC [U43G U54C]	0.45
UAACAGGGGGCCACAGCAGAAGCGUUCACGUCGCAGCCCCUGGCAGAUUCUGGUGAAUCUGCGAAUCCUGCUGUAUAUCUC [U43G U67C]	0.11
UAACAGGGGGCCACAGCAGAAGCGUUCACGUCGCAGCCCCUGUAAGAUUCUGGCGAAUCUGCGAAUUCUGCUGUAUAUCUC [C44A U54C]	0.36
UAACAGGGGGCCACAGCAGAAGCGUUCACGUCGCAGCCCCUGUAAGAUUCUGGAGAAUCUGCGAAUUCUGCUGUAUAUCUC [C44A U54A]	0.59
UAACAGGGGGCCACAGCAGAAGCGUUCACGUCGCAGCCCCUGGCAGAUUCUGGUGAAUCUGCGGAUUCUGCUGUAUAUCUC [U43G A64G]	0.46
UAACAGGGGGCCACAGCAGAAGCGUUCACGUCGCAGCCCCUGGCAGAUUCUGGUGAAUCUGCGUAUUCUGCUGUAUAUCUC [U43G A64U]	0.47
UAACAGGGGGCCACAGCAGAAGCGUUCACGUCGCAGCCCCUGUAAGAUUCUGGUGAAUCUGCGAAUUCUGCUGUAUGUCUC [C44A A77G]	0.43
UAACAGGGGGCCACAGCAGAAGCGUUCACGUCGCAGCCCCUGUGAGAUUCUGGUGAAUCUGCGAAUUCUGCUGUAUGUCUC [C44G A77G]	0.62
UAACAGGGGGCCACAGCAGAAGCGUUCACGUCGCAGCCCCUGUGAGAUACUGGUGAAUCUGCGAAUUCUGCUGUAUAUCUC [C44G U49A]	0.23
UAACAGGGGGCCACAGCAGAAGCGUUCACGUCGCAGCCCCUGUGAGAUCCUGGUGAAUCUGCGAAUUCUGCUGUAUAUCUC [C44G U49C]	0.19
UAACAGGGGGCCACAGCAGAAGCGUUCACGUCGCAGCCCCUGUGAGAUUCUGGUGAAUCUGCGAAUUCUGUUGUAUAUCUC [C44G C71U]	0.15
UAACAGGGGGCCACAGCAGAAGCGUUCACGUCGCAGCCCCUGUGAGAUUCUGGUGAAUCUGCGAUUUCUGCUGUAUAUCUC [C44G A65U]	0.1
UAACAGGGGGCCACAGCAGAAGCGUUCACGUCGCAGCCCCUGUAAGAUUCUGGUGAAUCUGCGAAUUCUGCUGUAUAUCUC [C44A]	0.43
UAACAGGGGGCCACAGCAGAAGCGUUCACGUCGCAGCCCCUGUGAGAUUCUGGUGAAUCUGCGAAUUCUGCUGUAUAUCUC [C44G]	0.52
UAACAGGGGGCCACAGCAGAAGCGUUCACGUCGCAGCCCCUGGCAGAUUCUGGUGAAUCCGCGAAUUCUGCUGUAUAUCUC [U43G U60C]	0.13
UAACAGGGGGCCACAGCAGAAGCGUUCACGUCGCAGCCCCUGGCAGAUUCUGGUGAAUCAGCGAAUUCUGCUGUAUAUCUC [U43G U60A]	0.15
UAACAGGGGGCCACAGCAGAAGCGUUCACGUCGCAGCCCCUGGCAGAUUCUGGUGAAUCUGCGAAUUCUGCUGUAUAUCUU [U43G C81U]	0.08
UAACAGGGGGCCACAGCAGAAGCGUUCACGUCGCAGCCCCUGUAGGAUUCUGGUGAAUCUGCGAAUUCUGCUGUAUAUCUC [C44A A45G]	0.61

Variant	self-cleavage
UAACAGGGGGCCACAGCAGAAGCGUUCACGUCGCAGCCCCUGUAAGAUUCUGGUGAAUCUGCGAAUUCUGCCGUAUAUCUC [C44A U72C]	0.71
UAACAGGGGGCCACAGCAGAAGCGUUCACGUCGCAGCCCCUGUAAGAUUCUGGUGAAUCUGCGCAUUCUGCUGUAUAUCUC [C44A A64C]	0.18
UAACAGGGGGCCACAGCAGAAGCGUUCACGUCGCAGCCCCUGUAAGAUUCUGGUGAAUCUGCGGAUUCUGCUGUAUAUCUC [C44A A64G]	0.49
UAACAGGGGGCCACAGCAGAAGCGUUCACGUCGCAGCCCCUGUAAGAUUCUGGUGAAUCUGCGAGUUCUGCUGUAUAUCUC [C44A A65G]	0.2
UAACAGGGGGCCACAGCAGAAGCGUUCACGUCGCAGCCCCUGUGAGAUUCUGGUGAAUCUGCGAAUUAUGCUGUAUAUCUC [C44G C68A]	0.3
UAACAGGGGGCCACAGCAGAAGCGUUCACGUCGCAGCCCCUGGCAGAUUCCGGUGAAUCUGCGAAUUCUGCUGUAUAUCUC [U43G U51C]	0.2
UAACAGGGGGCCACAGCAGAAGCGUUCACGUCGCAGCCCCUGUGAGAUUCUGGUGAGUCUGCGAAUUCUGCUGUAUAUCUC [C44G A57G]	0.45
UAACAGGGGGCCACAGCAGAAGCGUUCACGUCGCAGCCCCUGGCAGAUUCUGGUGAAUCUGCGAAUUCUGCGGUAUAUCUC [U43G U72G]	0.17
UAACAGGGGGCCACAGCAGAAGCGUUCACGUCGCAGCCCCUGGCAGAUUCUGGUGAAUCUGCGAAUUCUGCCGUAUAUCUC [U43G U72C]	0.33
UAACAGGGGGCCACAGCAGAAGCGUUCACGUCGCAGCCCCUGGCAGAUUCUGGUGAAUCUGCGAAUUCUGCAGUAUAUCUC [U43G U72A]	0.1
UAACAGGGGGCCACAGCAGAAGCGUUCACGUCGCAGCCCCUGUAAGAUUCUGGUGAAUCUGCGAAUUCUGCUGUGUAUCUC [C44A A75G]	0.32
UAACAGGGGGCCACAGCAGAAGCGUUCACGUCGCAGCCCCUGUAAGACUCUGGUGAAUCUGCGAAUUCUGCUGUAUAUCUC [C44A U48C]	0.32
UAACAGGGGGCCACAGCAGAAGCGUUCACGUCGCAGCCCCUGUAAGAUUCUGGUGAAUCUGCGAAUUCUGCUGUAUAACUC [C44A U78A]	0.49
UAACAGGGGGCCACAGCAGAAGCGUUCACGUCGCAGCCCCUGUAAGAUUCUGGUGAAUCUGCGAAUUCUGCUGUAUACCUC [C44A U78C]	0.38
UAACAGGGGGCCACAGCAGAAGCGUUCACGUCGCAGCCCCUGGCAGAAUCUGGUGAAUCUGCGAAUUCUGCUGUAUAUCUC [U43G U48A]	0.2
UAACAGGGGGCCACAGCAGAAGCGUUCACGUCGCAGCCCCUGGCAGACUCUGGUGAAUCUGCGAAUUCUGCUGUAUAUCUC [U43G U48C]	0.39
UAACAGGGGGCCACAGCAGAAGCGUUCACGUCGCAGCCCCUGGCAGAUUCUGGUGAAUCUGCGAAUUCCGCUGUAUAUCUC [U43G U69C]	0.35
UAACAGGGGGCCACAGCAGAAGCGUUCACGUCGCAGCCCCUGUAAGAUUCUGGUGAAUCUGCGAAUUCUGCUGCAUAUCUC [C44A U74C]	0.63
UAACAGGGGGCCACAGCAGAAGCGUUCACGUCGCAGCCCCUGGUAGAUUCUGGUGAAUCUGCGAAUUCUGCUGUAUAUCUC [U43G C44U]	0.14
UAACAGGGGGCCACAGCAGAAGCGUUCACGUCGCAGCCCCUGUAAGAUUCUGGUGAAUCUGCGAAUUCCGCUGUAUAUCUC [C44A U69C]	0.17
UAACAGGGGGCCACAGCAGAAGCGUUCACGUCGCAGCCCCUGUAAGAUUCUGGUGAAUCUGCGAAUUCGGCUGUAUAUCUC [C44A U69G]	0.13
UAACAGGGGGCCACAGCAGAAGCGUUCACGUCGCAGCCCCUGUAAGAUUCUGGUGUAUCUGCGAAUUCUGCUGUAUAUCUC [C44A A56U]	0.21
UAACAGGGGGCCACAGCAGAAGCGUUCACGUCGCAGCCCCUGUAAGAUUCAGGUGAAUCUGCGAAUUCUGCUGUAUAUCUC [C44A U51A]	0.11

Variant	self-cleavage
UAACAGGGGGCCACAGCAGAAGCGUUCACGUCGCAGCCCCUGUAAGAUUCUGGUGAAUCUGCGAAUUGUGCUGUAUAUCUC [C44A C68G]	0.12
UAACAGGGGGCCACAGCAGAAGCGUUCACGUCGCAGCCCCUGGCAGAUUCUGGUGAAUCUGCGAAUUCUGCUGAAUAUCUC [U43G U74A]	0.11
UAACAGGGGGCCACAGCAGAAGCGUUCACGUCGCAGCCCCUGGCAGAUUCUGGUGAAUCUGCGAAUUCUGCUGGAUAUCUC [U43G U74G]	0.36
UAACAGGGGGCCACAGCAGAAGCGUUCACGUCGCAGCCCCUGGCAGAUCCUGGUGAAUCUGCGAAUUCUGCUGUAUAUCUC [U43G U49C]	0.28
UAACAGGGGGCCACAGCAGAAGCGUUCACGUCGCAGCCCCUGGCAGAUUCUGGUGAAUCUGGGAAUUCUGCUGUAUAUCUC [U43G C62G]	0.43
UAACAGGGGGCCACAGCAGAAGCGUUCACGUCGCAGCCCCUGGCAGAUUCUGGUGAAUCUGUGAAUUCUGCUGUAUAUCUC [U43G C62U]	0.26
UAACAGGGGGCCACAGCAGAAGCGUUCACGUCGCAGCCCCUGUAAGAUUCUGGUGAAUCUGCGAAUCCUGCUGUAUAUCUC [C44A U67C]	0.16
UAACAGGGGGCCACAGCAGAAGCGUUCACGUCGCAGCCCCUGUGAGAUUCUGGUGGAUCUGCGAAUUCUGCUGUAUAUCUC [C44G A56G]	0.44
UAACAGGGGGCCACAGCAGAAGCGUUCACGUCGCAGCCCCUGUAAGAUUCUGGUGAAUCUGCGAAGUCUGCUGUAUAUCUC [C44A U66G]	0.23
UAACAGGGGGCCACAGCAGAAGCGUUCACGUCGCAGCCCCUGGCAGAUUCUGGUGAAUCUGCGAAUUCUGCUGUAUAUCCC [U43G U80C]	0.18
UAACAGGGGGCCACAGCAGAAGCGUUCACGUCGCAGCCCCUGGCAGAUUCUGAUGAAUCUGCGAAUUCUGCUGUAUAUCUC [U43G G53A]	0.3
UAACAGGGGGCCACAGCAGAAGCGUUCACGUCGCAGCCCCUGUGAGACUCUGGUGAAUCUGCGAAUUCUGCUGUAUAUCUC [C44G U48C]	0.1
UAACAGGGGGCCACAGCAGAAGCGUUCACGUCGCAGCCCCUGGCAGAUUCUGGUGAAUCUGCGAAUUCUGCUGUAUACCUC [U43G U78C]	0.28
UAACAGGGGGCCACAGCAGAAGCGUUCACGUCGCAGCCCCUGUAAGAUUCUGGUGAAUCUGCGAAUUCUGCUGUACAUCUC [C44A U76C]	0.37
UAACAGGGGGCCACAGCAGAAGCGUUCACGUCGCAGCCCCUGGCAGAUUCUGGUGAAUCUGCGAGUUCUGCUGUAUAUCUC [U43G A65G]	0.34
UAACAGGGGGCCACAGCAGAAGCGUUCACGUCGCAGCCCCUGUAAGAUUCUGGUGAAUCUGCGAAUUCUGCUGUAUAUCCC [C44A U80C]	0.41
UAACAGGGGGCCACAGCAGAAGCGUUCACGUCGCAGCCCCUGUGAGAUUCUGGUGAAUCUGCAAAUUCUGCUGUAUAUCUC [C44G G63A]	0.65
UAACAGGGGGCCACAGCAGAAGCGUUCACGUCGCAGCCCCUGUAAGAUUCUGGUGAAUCCGCGAAUUCUGCUGUAUAUCUC [C44A U60C]	0.17
UAACAGGGGGCCACAGCAGAAGCGUUCACGUCGCAGCCCCUGGCAGAUUCUGGUGAAUCUGCGAAUUCUGCUGUGUAUCUC [U43G A75G]	0.24
UAACAGGGGGCCACAGCAGAAGCGUUCACGUCGCAGCCCCUGGCAGAUUCUGGUGAAUCUGCGAAUUCUGCUGUUUAUCUC [U43G A75U]	0.35
UAACAGGGGGCCACAGCAGAAGCGUUCACGUCGCAGCCCCUGUGGGAUUCUGGUGAAUCUGCGAAUUCUGCUGUAUAUCUC [C44G A45G]	0.34
UAACAGGGGGCCACAGCAGAAGCGUUCACGUCGCAGCCCCUGUGUGAUUCUGGUGAAUCUGCGAAUUCUGCUGUAUAUCUC [C44G A45U]	0.13

From the RNAGym collection of RNA variant scans (doi:10.1093/nar/gkz1192)
